Literature values as cited in PMC10967246.
Read-outs that look alike come from different tables or passages of the source.

Legend:
[1] = target: GluTR (Arabidopsis thaliana) (UniProt P42804)
[2] = target: GluTR (Arabidopsis thaliana) (UniProt P42804); experiment: MST

GluTR (Arabidopsis thaliana), sequence (P42804 62-543): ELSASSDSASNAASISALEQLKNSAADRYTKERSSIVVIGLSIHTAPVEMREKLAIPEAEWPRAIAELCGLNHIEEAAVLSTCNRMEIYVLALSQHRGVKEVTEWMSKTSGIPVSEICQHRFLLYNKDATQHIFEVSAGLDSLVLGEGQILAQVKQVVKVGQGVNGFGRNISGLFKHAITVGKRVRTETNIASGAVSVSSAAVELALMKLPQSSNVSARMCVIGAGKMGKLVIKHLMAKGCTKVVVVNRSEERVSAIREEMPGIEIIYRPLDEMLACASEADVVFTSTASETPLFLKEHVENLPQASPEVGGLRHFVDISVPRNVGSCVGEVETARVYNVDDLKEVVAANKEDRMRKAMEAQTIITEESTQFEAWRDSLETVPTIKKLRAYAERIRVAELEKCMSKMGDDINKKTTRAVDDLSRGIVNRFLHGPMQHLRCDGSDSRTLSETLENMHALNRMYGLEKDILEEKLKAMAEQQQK
GBP, sequence (Q9LU39 43-317): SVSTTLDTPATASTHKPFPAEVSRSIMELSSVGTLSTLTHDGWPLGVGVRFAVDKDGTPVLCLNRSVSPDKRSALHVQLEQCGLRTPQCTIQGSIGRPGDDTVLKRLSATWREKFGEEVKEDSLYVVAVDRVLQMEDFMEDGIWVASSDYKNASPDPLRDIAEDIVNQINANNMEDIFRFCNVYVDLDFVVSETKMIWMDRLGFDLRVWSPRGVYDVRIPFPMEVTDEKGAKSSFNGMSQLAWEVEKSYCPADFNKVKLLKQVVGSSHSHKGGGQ
FLU TPR domain, sequence (Q940U6 203-316): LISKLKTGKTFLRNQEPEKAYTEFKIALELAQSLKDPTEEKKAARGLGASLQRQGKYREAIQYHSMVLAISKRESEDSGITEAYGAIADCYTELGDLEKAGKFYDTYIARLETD

Substance | Kd [1] | Kd [2]
FLU TPR domain (from UniProt Q940U6) | 475 nM | –
GBP (from UniProt Q9LU39) | – | 42 nM
